Measured values taken from PMC2814116 (Journal of Experimental Botany, 2009).

Target: the molecule itself
Test: SEC

B1: Recombinant PCNA2 protein of Arabidopsis thaliana (AtPCNA2) (natural protein, UniProt Q9ZW35 1-264, looked up)
chain: MLELRLVQGSLLKKVLEAVKDLVNDANFDCSTTGFSLQAMDSSHVALVSLLLRSEGFEHYRCDRNLSMGMNLGNMSKMLKCAGNDDIITIKADDGSDTVTFMFESPTQDKIADFEMKLMDIDSEHLGIPDAEYHSIVRMPSGEFSRICKDLSSIGDTVVISVTKEGVKFSTAGDIGTANIVLRQNTTVDKPEDAIVIEMNEPVSLSFALRYMNSFTKATPLSETVTISLSSELPVVVEYKVAEMGYIRYYLAPKIEEEEDTKPE
  binding result: binds
